From patent publication US20020115066A1, “Viral therapeutics” (priority 1998, published 2002)
Peptide text beside a SMILES is read from it. * marks the point of attachment. Cbz = O=C(OCc1ccccc1)*

Key:
proteasome = assay: Western blot of core protein after treatment with proteasome inhibitor MG132; assay type: cell-based, hamster; settings: cells electroporated with pSFV.1-124, 145-152; MG132 2.5 μM from 4 hours after electroporation, harvested at 16 hours
Protocol: A. Western Blot analysis of extracts prepared from cells which were harvested 16 hours after electroporation following treatment with proteasomal inhibitor MG132. Aliquots of extracts containing the same number of cell equivalents were analyzed with antibody JM122. The samples were from cells electroporated with RNA from the following constructs: lanes 1 and 2, PSFV.1-195; lanes 3 and 4, pSFV.1-124, 145-152; lanes 5 and 6, pSFV.Δ125-144; lanes 7 and 8, pSFV.1-153; lanes 9 and 10, no RNA. Samples in lanes with odd numbers were prepared from cells not treated with MG132. Samples in lanes with even numbers were prepared from cells which had been incubated in the presence of MG132 (final concentration 2.5 μM) from 4 hours after electroporation.
For Western blot analysis, proteins were separated on polyacrylamide gels and transferred to nitrocellulose membrane using standard techniques. The nitrocellulose membrane was blocked in 3% gelatin, 20 mM Tris (pH 7.5), 500 mM NaCl for at least 6 hours at 37° C. prior to incubation with the primary antibody. Incubations with the primary antibody (diluted to 1/500for adipophilin antibody and 1/1000for JM122) were performed in 1% gelatin, 20 mM Tris (pH 7.5), 500 mM NaCl, 0.05% Tween 20 at either room temperature or 37° C. for approximately 3-4 hours. […] Bound antibody was detected by enhanced chemiluminescence.

lipid droplets = assay: Intracellular localization of tagged GBV-B and HCV core proteins (Example 10); assay type: cell-based, hamster; settings: BHK cells, epitope tag detected with antibody 9220 or JM122, oil red O
From the text: To express portions of the GBV-B polyprotein, relevant regions were amplified by PCR from a construct pGBB (30). pGBB contains the consensus sequence for an infectious molecular clone of GBV-B (30). Primers for PCR amplification were derived from the viral sequences in pGBB and were used in the following pairs to produce DNA fragments that encoded N-terminal regions of the GBV-B polyprotein: residues 1-141, GBV-B primers 1 and 2; residues 1-194, GBV-B primers 1 and 3; residues 1-398, GBV-B primers 1 and 4. Amplified fragments were introduced initially into plasmid pGEM1 and thereafter into pSFV1 by standard cloning techniques. To permit detection of GBV-B core, an epitope tag (32) was introduced into the coding region immediately following amino acid residue 85 (FIG. 7). […] An oligonucleotide encoding the epitope tag (GBV-B5 in Table 1) was inserted between this XbaI site and a TfiI site (position 708 in the native GBV-B nucleotide sequence). The final SFV constructs that contained tagged versions of GBV-B core were termed pSFV/GB1-141, pSFV/GB1-194 and pSFV/GB1-398. […]
Cells on 13 mm coverslips were fixed for 30 min in 4% paraformaldehyde, 0.1% Triton X-100 (prepared in phosphate-buffered saline) at 4° C. […] Samples were analyzed using a Zeiss LSM confocal microscope.

Molecule | increase in the amount of protein detected by Western blot analysis (proteasome) | intracellular localization relative to lipid droplets (lipid droplets)
CC(C)C[C@@H](C=O)NC(=O)[C@H](CC(C)C)NC(=O)[C@H](CC(C)C)NC(=O)OCc1ccccc1 [MG132] (Cbz-Leu-Leu-Leu-aldehyde) | 4 fold | 
pSFV/GB1-398: SFV construct with epitope-tagged GBV-B core, residues 1-398 of the GBV-B polyprotein (protein, left off: small tags and cut ends) MPVISTQTSPVPAPRTRKNKQTQASYPVSIKTSVERGQRAKRKVQRDARPRNYKIAGIHDGLQTLAQAALPAHGWGRQDPRHKSRNLGILLDYPLGWIGDVTTHTPLVGPLVAGAVVRPVCQIVRLLEDGVNWATGWFGVHLFVVCLLSLACPCSGARVTDPDTNTTILTNCCQRNQVIYCSPSTCLHEPGCVICADECWVPANPYISHPSNWTGTDSFLADHIDFVMGALVTCDALDIGELCGACVLVGDWLVRHWLIHIDLNETGTCYLEVPTGIDPGFLGFIGWMAGKVEAVIFLTKLASQVPYAIATMFSSVHYLAVGALIYYASRGKWYQLLLALMLYIEATSGNPIRVPTGCSIAEFCSPLMIPCPCHSYLSENVSEVICYSPKWTRPVTLE |  | staining around lipid droplets
pSFV/GB1-141: SFV construct with epitope-tagged GBV-B core, residues 1-141 of the GBV-B polyprotein (protein, left off: small tags and cut ends) MPVISTQTSPVPAPRTRKNKQTQASYPVSIKTSVERGQRAKRKVQRDARPRNYKIAGIHDGLQTLAQAALPAHGWGRQDPRHKSRNLGILLDYPLGWIGDVTTHTPLVGPLVAGAVVRPVCQIVRLLEDGVNWATGWFGVH |  | localization of the protein around lipid droplets
